The source of these data is US20110039770A1, “INHIBITORS OF PROTEIN KINASE C ISOFORMS AND USES THEREOF” (PHARMAGAP INC., priority 2005, published 2011).

One experiment addresses PKC-βI (Homo sapiens, UniProt P05771). Briefly: Competitive binding assay using cell extracts (Western blot). Also noted: PKC-βII by PRE 3 and PRE 4 in IMR-32 Neuroblastoma; endogenous in cells; host or cells: IMR-32 human neuroblastoma cells; key: —: no detectable affinity; Low to very low affinity at 10X or 20X or both PRE concentrations in at least one cell line in the cell extract assay; Low affinity in purified isoform assay.; Moderate affinity at 10X or 20X or both PRE concentrations in at least one cell line in the cell extract assay.; High affinity at 10X or 20X or both PRE concentrations in at least one cell line in the cell extract assay; High affinity in purified isoform assay. As to conditions: Cell extract; PRE 10X or 20X antibody concentration. (In general: Immunoblotting shows a protein as a band on a membrane.)

The next experiment has as its target T1, PKC-ζ (Homo sapiens, UniProt Q05513).
T1 sequence (Q05513 1-592): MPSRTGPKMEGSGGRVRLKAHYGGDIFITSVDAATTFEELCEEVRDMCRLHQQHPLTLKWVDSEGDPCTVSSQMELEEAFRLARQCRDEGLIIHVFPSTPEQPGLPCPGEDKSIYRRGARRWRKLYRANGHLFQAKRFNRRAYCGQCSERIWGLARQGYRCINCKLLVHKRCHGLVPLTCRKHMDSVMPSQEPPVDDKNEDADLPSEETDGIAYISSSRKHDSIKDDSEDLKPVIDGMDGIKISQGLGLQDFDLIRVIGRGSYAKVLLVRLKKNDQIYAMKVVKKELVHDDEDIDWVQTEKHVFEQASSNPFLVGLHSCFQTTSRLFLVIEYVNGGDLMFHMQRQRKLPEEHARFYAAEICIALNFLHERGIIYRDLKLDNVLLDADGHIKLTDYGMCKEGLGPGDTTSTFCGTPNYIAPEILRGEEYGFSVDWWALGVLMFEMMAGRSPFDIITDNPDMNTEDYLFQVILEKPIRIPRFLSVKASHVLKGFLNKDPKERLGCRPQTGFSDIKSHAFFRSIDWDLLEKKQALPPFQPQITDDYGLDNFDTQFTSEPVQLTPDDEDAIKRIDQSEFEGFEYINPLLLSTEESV
Briefly: ELISA-based competitive binding assay with purified PKC isoform. Also noted: key to Affinity for PKC isoform ζ: —: no detectable affinity; Low to very low affinity at 10X or 20X or both PRE concentrations in at least one cell line in the cell extract assay; Low affinity in purified isoform assay.; Moderate affinity at 10X or 20X or both PRE concentrations in at least one cell line in the cell extract assay.; High affinity at 10X or 20X or both PRE concentrations in at least one cell line in the cell extract assay; High affinity in purified isoform assay. Particulars: for Affinity for PKC isoform ζ: Purified isoform. As to the method:
Peptides PRE 1, 2, 3, 4, 5, 6, 7, 8, 9, 10, 11, 12 and 13 (see Table 3) were tested for their ability to interfere with binding of PKC isoform-specific antibodies to their target PKC isoforms using a competitive binding assay and purified PKC isoforms.
Procedure: Competitive binding was assessed using a 96 well plate ELISA-based assay as described below.
Greiner 96 well ELISA plates were coated with the appropriate PKC isoform diluted in PBSN (PBS with Calcium/Magnesium+0.05% Sodium azide w/w). 50 μL/well at 250 ng/mL was used. Control wells contained PBSN only. Plates were incubated overnight at 4° C.
The plates were washed 3 times with 200 μL of dH2O per well, then 100 μL of blocking solution was added per well and the plate incubated for 1 h at 37° C. The washing steps with dH2O were repeated and 50 μL of the appropriate PRE solution (PRE stock solution [20 mM in DMSO] diluted in PBSN) was added and the plate incubated for 1 h at room temperature.
After incubation, 5 μL of 1.1:400 anti-PKC (isoform specific antibody) was added per well (to provide a final concentration of 1:4000). For PKC-epsilon, 1.1:800 dilution was used and for PKC-zeta a 1.1:100 dilution was used due to high and low binding affinity, respectively. The plates were then incubated 1 h at room temperature, followed by washing with dH2O as described above.
50 μL of 1:1000 dilution of Alkaline Phosphatase (AP) conjugated antibody (anti-rabbit for all except zeta, which was anti-goat) was then added and the plate incubated for 1 h at room temperature. Washing with dH2O was then repeated. Finally, 100 μL of pNPP solution in pNPP buffer (2 mM MgCl2, 100 mM Sodium bicarbonate in water, pH 9.8) was added to all wells and incubated for 8 minutes for α, βI, βII ε, and ζ, or for 15-20 mins for δ (until sufficient coloration is observed). The reaction was stopped by addition of Stop solution (2N NaOH) and the absorbance at 405 nm was read on a Galaxy Plate reader.
Controls were PKC without PRE; blank controls, and controls containing the final concentrations of DMSO used for solubilizing the PREs. The non-specific binding capacity related to DMSO was also measured.
The antibodies used were as follows: anti-PKC α (Cat. No. SC-208); anti-PKC βI (Cat. No. SC-209); anti-PKC βII (Cat. No. SC-210); anti-PKC δ (Cat. No. SC-213); anti-PKC ε (Cat. No. SC-214); anti-PKC ζ (Cat. No. SC-216-G) (all from Santa Cruz Biotechnology, Inc.). The AP-conjugated antibodies were obtained from Jackson Immuno Research Laboratories (West Grove, Pa.).
Calculations: The OD values measured at 405 nm represent the free PKC coated per well.
OD405 PKC alone−Blank OD405 of each sample=OD405 coated isoform
(OD405 of sample X/OD405 coated isoform)×100=% n that represents the percentage of X binding compared to control.
100-% n measures the relative binding capacity of X towards the tested isoform.
The apparent binding capacity of the DMSO samples was then subtracted from X binding capacity.
All measurements were made in triplicate and the values in the table represent the averaged calculated binding capacity values after subtraction of the DMSO apparent binding capacity (averaged from 12 values, respectively 10.80, 11.20 and 16.40 corresponding to the concentrations of DMSO used to dilute the […] at 200, 100 and 50 μM respectively). The results allow for quantitative comparison of the binding capacity of each PRE towards an individual isoform within each table, but not among isoforms due to differences in sensitivity of the specific antibodies toward the secondary antibody. This applies particularly to PKC-delta. As noted above, the colour development duration was increased 2-3 times and, as a result, the OD405 measurements may be overestimated for this isoform.
Background: ELISA stands for enzyme-linked immunosorbent assay.

The mark [1] stands for this setting: PRE 50 μM, purified PKC-ζ, read-out: calculated binding capacity (100-% n, DMSO apparent binding subtracted).
Where [2] appears, read: PRE 100 μM, purified PKC-ζ, read-out: calculated binding capacity (100-% n, DMSO apparent binding subtracted).

Where a SMILES comes first, the peptide text is derived from it. [ ]: non-standard residue; d: D form.

Chain of PKC-βI (P05771 whole entry, canonical isoform): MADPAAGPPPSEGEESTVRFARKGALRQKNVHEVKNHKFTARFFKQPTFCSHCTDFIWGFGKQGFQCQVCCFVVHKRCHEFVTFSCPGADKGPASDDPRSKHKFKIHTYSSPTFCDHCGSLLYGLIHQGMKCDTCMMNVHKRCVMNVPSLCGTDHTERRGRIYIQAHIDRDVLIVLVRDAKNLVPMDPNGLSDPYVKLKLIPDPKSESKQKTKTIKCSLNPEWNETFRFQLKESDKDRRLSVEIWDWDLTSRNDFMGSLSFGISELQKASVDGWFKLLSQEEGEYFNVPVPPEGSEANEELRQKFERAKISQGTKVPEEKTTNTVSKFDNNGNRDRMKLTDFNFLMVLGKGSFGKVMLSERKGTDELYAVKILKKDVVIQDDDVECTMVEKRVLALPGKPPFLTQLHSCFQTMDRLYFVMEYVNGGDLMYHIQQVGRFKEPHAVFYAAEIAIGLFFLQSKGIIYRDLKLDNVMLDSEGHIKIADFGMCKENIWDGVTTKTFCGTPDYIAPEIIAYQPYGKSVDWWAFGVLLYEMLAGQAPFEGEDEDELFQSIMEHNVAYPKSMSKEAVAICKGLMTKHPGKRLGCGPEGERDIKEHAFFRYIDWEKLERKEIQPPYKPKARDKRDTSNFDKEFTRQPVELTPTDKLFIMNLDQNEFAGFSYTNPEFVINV

Consider `CC[C@H](C)[C@H](NC(=O)[C@H](CO)NC(=O)[C@@H](NC(=O)CNC(=O)[C@@H](NC(=O)[C@H](CC(C)C)NC(=O)[C@H](CC(N)=O)NC(=O)[C@H](CCC(N)=O)NC(=O)[C@H](C)NC(=O)[C@H](CC(=O)O)NC(=O)CNC(=O)CNC(=O)[C@H](CCCCN)NC(=O)[C@@H](NC(=O)[C@H](CCC(=O)O)NC(=O)[C@H](CCC(N)=O)NC(=O)[C@@H](NC(=O)CNC(=O)[C@H](CCCCN)NC(=O)[C@H](C)NC(C)=O)[C@@H](C)CC)C(C)C)[C@@H](C)CC)[C@@H](C)CC)C(N)=O` [PRE 3] (Ac-AKGIQEVKGGDAQNLIGISI-NH2), for which, on PKC-βI, the “Affinity for PKC isoform βI” value was “L”. Besides, the “Affinity for PKC isoform ζ” value at PKC-ζ was “H”.
Consider `CC[C@H](C)[C@H](NC(=O)[C@H](CO)NC(=O)[C@@H](NC(=O)CNC(=O)[C@@H](NC(=O)[C@H](CC(C)C)NC(=O)[C@H](CC(N)=O)NC(=O)[C@H](CCC(N)=O)NC(=O)[C@H](C)NC(=O)[C@H](CC(=O)O)NC(=O)[C@H](CCCCN)NC(C)=O)[C@@H](C)CC)[C@@H](C)CC)C(N)=O` [PRE 4, Ac-KDAQNLIGISI-NH2] (Ac-KDAQNLIGISI-NH2), for which the “Affinity for PKC isoform βI” value at PKC-βI is “H”. For the same compound, the inhibition at 50 µM on PKC-ζ (setting [1]) is 0%. The inhibition at 100 µM on PKC-ζ (setting [2]) is 0%. Besides, the “Affinity for PKC isoform ζ” value on PKC-ζ is on record as “—”.
Consider `CC[C@H](C)[C@H](NC(=O)[C@H](CO)NC(=O)[C@@H](NC(=O)CNC(=O)[C@@H](NC(=O)[C@H](CC(C)C)NC(=O)[C@H](CC(N)=O)NC(=O)[C@H](CCC(N)=O)NC(=O)[C@H](C)NC(=O)[C@H](CC(=O)O)NC(=O)[C@H](CCCCN)NC(=O)CNC(=O)CNC(=O)[C@H](CCCCN)NC(=O)[C@@H](NC(=O)[C@H](CCC(=O)O)NC(=O)[C@H](CCC(N)=O)NC(=O)[C@@H](NC(=O)CNC(=O)[C@H](CCCCN)NC(=O)[C@H](C)NC(C)=O)[C@@H](C)CC)C(C)C)[C@@H](C)CC)[C@@H](C)CC)C(N)=O` [PRE 5] (Ac-AKGIQEVKGGKDAQNLIGISI-NH2), for which the “Affinity for PKC isoform βI” value at PKC-βI was “H”. Besides, the inhibition at 50 µM on PKC-ζ (setting [1]) was 0%. The inhibition at 100 µM on PKC-ζ (setting [2]) was 0%. Moreover, the inhibition at 200 µM on PKC-ζ (PRE 200 μM, purified PKC-ζ, read-out: calculated binding capacity (100-% n, DMSO apparent binding subtracted)) was 0%. Moreover, the “Affinity for PKC isoform ζ” value at PKC-ζ is “—”.
Turning to Ac-ISIGILNQADK-NH2 [PRE 10], the “Affinity for PKC isoform βI” value with PKC-βI is “M”. Moreover, in the experiment with PKC-ζ, the “Affinity for PKC isoform ζ” value is listed as “—”.
For “Ac-ISIGILQNADK-NH2 (not fully specified; printed as Ac-ISIGILQNADK-NH2) [PRE 7]”, the “Affinity for PKC isoform βI” value with PKC-βI is on record as “—”. Further, the “calculated binding capacity (100-% n, DMSO apparent binding subtracted)” value is recorded as 1.83% with PKC-ζ (PRE 50 μM, purified PKC-ζ) and 1.54% in the experiment with PKC-ζ (PRE 200 μM, purified PKC-ζ). In addition, the “Affinity for PKC isoform ζ” value with PKC-ζ is “—”.
Consider Ac-KDANQLIGISI-NH2 [PRE 6], for which the “Affinity for PKC isoform βI” value in the experiment with PKC-βI is on record as “H”. Moreover, the “Affinity for PKC isoform ζ” value with PKC-ζ is listed as “—”.
For the compound Ac-KDAQNLI-NH2 [PRE 12], in the experiment with PKC-βI, the “Affinity for PKC isoform βI” value was “—”. The “calculated binding capacity (100-% n, DMSO apparent binding subtracted)” value is recorded as 4.20% with PKC-ζ (PRE 50 μM, purified PKC-ζ); 8.77% with PKC-ζ (PRE 100 μM, purified PKC-ζ); 0.33% in the experiment with PKC-ζ (PRE 200 μM, purified PKC-ζ). For the same compound, the “Affinity for PKC isoform ζ” value with PKC-ζ is given as “—”.
Turning to Ac-RDAQNLI-NH2 [PRE 13], the “Affinity for PKC isoform βI” value in the experiment with PKC-βI was “—”. The “calculated binding capacity (100-% n, DMSO apparent binding subtracted)” value in the experiment with PKC-ζ (PRE 200 μM, purified PKC-ζ) is 4.29%. Moreover, in the experiment with PKC-ζ, the “Affinity for PKC isoform ζ” value is recorded as “—”.
On to Ac-RDAQNLIGISI-NH2 [PRE 11], for which the “Affinity for PKC isoform βI” value in the experiment with PKC-βI is recorded as “H”. Moreover, the “Affinity for PKC isoform ζ” value with PKC-ζ is “—”.
For “Ac-isigilqnadk-NH2 (Ac-[dI][dS][dI]G[dI][dL][dQ][dN][dA][dD][dK]-NH2; SMILES CC[C@@H](C)[C@@H](NC(C)=O)C(=O)N[C@H](CO)C(=O)N[C@@H](C(=O)NCC(=O)N[C@@H](C(=O)N[C@H](CC(C)C)C(=O)N[C@H](CCC(N)=O)C(=O)N[C@H](CC(N)=O)C(=O)N[C@H](C)C(=O)N[C@H](CC(=O)O)C(=O)N[C@H](CCCCN)C(N)=O)[C@H](C)CC)[C@H](C)CC) [PRE 9]”, the “Affinity for PKC isoform βI” value with PKC-βI is on record as “M”. Besides, in the experiment with PKC-ζ, the “Affinity for PKC isoform ζ” value is reported as “—”.
ILEDKGGDAQNLIGISI [PRE 8]: the “Affinity for PKC isoform ζ” value in the experiment with PKC-ζ is “—”.
For RRKKGGKDFVVKR [PRE 1], in the experiment with PKC-βI, the “Affinity for PKC isoform βI” value is “H”. The “calculated binding capacity (100-% n, DMSO apparent binding subtracted)” value with PKC-ζ (PRE 50 μM, purified PKC-ζ) is listed as 4.11%. Also, the “Affinity for PKC isoform ζ” value in the experiment with PKC-ζ is listed as “—”.
